Among the data in publication PMC3875342 are KD without sulfatide (CD1d loaded with 24:1 βGalCer) values, retold here.

In this experiment the target is DP10.7 TCR (Vγ4Vδ1), soluble recombinant γδ TCR (human). Kind of experiment: SPR. Background: SPR reads the build-up and loss of mass on a sensor chip optically.

In the case of “soluble, recombinant human CD1d (heterodimer with β2-microglobulin) (from UniProt P15813 20-301; P61769 21-119) (complex)”, the KD without sulfatide (CD1d loaded with 24:1 βGalCer) was more than 100 µM.
